Source: article PMC6294806
Where “and” joins values, the source holds several entries; their conditions need not be identical. Identical values can stand only once.

Experiments:
[1] = molecular target: Protein G of the commercial protein G-based microplate (UniProt P19909); assay: ELISA; sandwich ELISA on commercial protein G-based microplates coated with anti-IFN-α antibody (2 μg/ml); AGP3-biotin 1 μg/ml, 1 hour at room temperature in DMEM/BSA; streptavidin-HRP and ABTS; background absorbance
[2] = molecular target: 8pG receptor: eight tandemly repeated protein G C2 domains fused to an HA epitope and the immunoglobulin C2-type extracellular-transmembrane-cytosolic domains of mouse B7-1 (mB7) (not stated (streptococcal cDNA) | mouse); assay: ELISA; 3.3-biotin (1 μg/ml serially diluted in DMEM/BSA) added to paraformaldehyde-fixed 8pG cell-based microplates, room temperature 1 hour; streptavidin-HRP and ABTS, absorbance 405 nm

Row | Substance | background OD 405 [1] | fold absorbance over the commercial protein G-based microplate, 0.01 ug/mL 3.3-biotin [2] | fold absorbance over the commercial protein G-based microplate, 0.04 ug/mL 3.3-biotin [2] | fold absorbance over the commercial protein G-based microplate, 0.11 ug/mL 3.3-biotin [2] | fold absorbance over the commercial protein G-based microplate, 1 ug/mL 3.3-biotin [2] | fold absorbance over the traditional polystyrene-based microplate, 0.01 ug/mL 3.3-biotin [2] | fold absorbance over the traditional polystyrene-based microplate, 0.04 ug/mL 3.3-biotin [2] | fold absorbance over the traditional polystyrene-based microplate, 0.11 ug/mL 3.3-biotin [2] | fold absorbance over the traditional polystyrene-based microplate, 1 ug/mL 3.3-biotin [2] | other [2]
1 | Biotin-conjugated monoclonal mouse anti-PEG IgM antibody AGP3 | 1.29 |  |  |  |  |  |  |  |  | 
2 | Biotin-conjugated monoclonal mouse anti-PEG antibody 3.3 (IgG type) |  | 6.8 fold | 6.2 fold | 2.7 fold | 1.2 fold | 23 fold | 12.4 fold | 8.8 fold | 1.5 fold | 1.6 fold and 4.3 fold
